± gives the uncertainty stated by the source.
B1: COUP transcription factor 1, residues 83 to 159; numbered along this chain, P10589 (parent)
chain: HIECVVCGDKSSGKHYGQFTCEGCKSFFKRSVRRNLTYTCRANRNCPIDQHHRNQCQYCRLKKCLKVGMRREAVQRG

Variants of: B1
Experiment: abundance fitness (aPCA) (normalised: wild type 0, dead -1); higher = more abundant; growth selection in yeast, the domain comes from the species named
Conditions: Homo sapiens

| Variant | abundance fitness |
| --- | --- |
| K10T | 0.056 ± 0.06 |
| K10A | -0.332 ± 0.06 |
| K10W | -0.233 ± 0.053 |
| K10Q | 0.022 ± 0.074 |
| K10S | -0.153 ± 0.051 |
| K10M | -0.067 ± 0.059 |
| K10V | -0.235 ± 0.048 |
| C64W | -0.675 ± 0.077 |
| C64A | -0.203 ± 0.043 |
| C64E | -0.831 ± 0.099 |
| G13W | -1.04 ± 0.19 |
| G13A | 0.171 ± 0.04 |
| G13I | -0.199 ± 0.099 |
| G13E | 0.089 ± 0.065 |
| G13L | -0.358 ± 0.054 |
| G13P | -0.175 ± 0.067 |
| G13F | -0.206 ± 0.075 |
| G13H | -0.306 ± 0.082 |
| S11N | -0.155 ± 0.18 |
| S11Y | 0.177 ± 0.15 |
| S11F | 0.085 ± 0.13 |
| S11M | -0.101 ± 0.099 |
| S11W | -0.236 ± 0.064 |
| S11E | -0.314 ± 0.075 |

| Variant | abundance fitness |
| --- | --- |
| Q75W | -0.119 ± 0.044 |
| Q75L | -0.007 ± 0.036 |
| Q75I | -0.077 ± 0.059 |
| Q75M | -0.114 ± 0.052 |
| Q75S | -0.023 ± 0.04 |
| Q18E | 0.143 ± 0.054 |
| Q18I | -0.051 ± 0.18 |
| Q18V | 0.261 ± 0.046 |
| Q18T | -0.137 ± 0.25 |
| Q18L | 0.01 ± 0.065 |
| Q18W | -0.459 ± 0.097 |
| N54D | -0.071 ± 0.079 |
| N54I | 0.092 ± 0.094 |
| N54R | -0.353 ± 0.045 |
| D9F | -0.045 ± 0.29 |
| D9H | -0.636 ± 0.27 |
| D9V | -0.304 ± 0.072 |
| D9L | -0.234 ± 0.084 |
| D9A | -0.128 ± 0.066 |
| D9Y | -0.381 ± 0.2 |
| K66C | -0.229 ± 0.056 |
| K66F | -0.013 ± 0.066 |
| K66H | -0.103 ± 0.068 |
| K66L | -0.032 ± 0.038 |

| Variant | abundance fitness |
| --- | --- |
| K66V | 0.041 ± 0.035 |
| F28V | -0.807 ± 0.098 |
| F28W | -0.069 ± 0.058 |
| F28T | -1.2 ± 0.34 |
| F28K | -0.419 ± 0.19 |
| F28Y | -0.42 ± 0.19 |
| I48K | -0.661 ± 0.14 |
| I48P | -0.788 ± 0.13 |
| I48N | -0.151 ± 0.088 |
| I48C | -0.25 ± 0.071 |
| E22H | -0.504 ± 0.17 |
| E22M | 0.01 ± 0.084 |
| E22V | -0.064 ± 0.06 |
| E22Y | -0.342 ± 0.19 |
| E22W | -0.061 ± 0.071 |
| E22Q | 0.181 ± 0.089 |
| S31E | -0.336 ± 0.091 |
| S31A | 0.036 ± 0.064 |
| P47G | -0.153 ± 0.044 |
| P47V | -0.003 ± 0.049 |
| P47W | -0.217 ± 0.062 |
| K29S | -0.058 ± 0.051 |
| K29R | -0.181 ± 0.04 |
| K29L | -0.186 ± 0.054 |

| Variant | abundance fitness |
| --- | --- |
| K29F | -0.147 ± 0.21 |
| K29D | 0.153 ± 0.08 |
| K29W | -0.149 ± 0.054 |
| C4Q | -1.25 ± 0.32 |
| C4N | -1.17 ± 0.23 |
| C4F | -0.939 ± 0.13 |
| C4L | -1.05 ± 0.14 |
| Y58W | -0.03 ± 0.04 |
| Y58I | -0.866 ± 0.28 |
| Y58P | -0.587 ± 0.08 |
| R53D | 0.055 ± 0.093 |
| R53L | -0.081 ± 0.065 |
| R53F | -0.495 ± 0.28 |
| R53Y | 0.224 ± 0.23 |
| R53M | -0.099 ± 0.11 |
| R53C | -0.001 ± 0.11 |
| V32D | -0.265 ± 0.1 |
| V32Q | -0.299 ± 0.1 |
| V32G | -0.378 ± 0.047 |
| K63W | -0.391 ± 0.053 |
| K63P | -0.647 ± 0.095 |
| K63F | -0.372 ± 0.12 |
| K63N | -0.626 ± 0.14 |
| K63L | -0.337 ± 0.049 |

| Variant | abundance fitness |
| --- | --- |
| C21V | -1.09 ± 0.13 |
| C21P | -0.923 ± 0.18 |
| R60P | -0.602 ± 0.092 |
| R60Q | 0.197 ± 0.045 |
| R60F | 0.132 ± 0.059 |
| R60T | -0.007 ± 0.046 |
| Q57S | -0.059 ± 0.06 |
| Q57Y | 0.296 ± 0.21 |
| Q57N | 0.163 ± 0.12 |
| Q57M | -0.121 ± 0.15 |
| Q57L | -0.221 ± 0.083 |
| Q57R | -0.231 ± 0.052 |
| Q57H | 0.054 ± 0.12 |
| Q57T | -0.088 ± 0.1 |
| C24T | -0.885 ± 0.19 |
| C24L | -0.841 ± 0.11 |
| C24Q | -1.04 ± 0.23 |
| C59W | -1.02 ± 0.12 |
| C59I | -1 ± 0.31 |
| C59Q | -0.801 ± 0.12 |
| C59R | -0.848 ± 0.069 |
| C59D | -0.729 ± 0.14 |
| G77W | -0.23 ± 0.074 |
| G77E | 0.06 ± 0.1 |

| Variant | abundance fitness |
| --- | --- |
| G77K | 0.101 ± 0.14 |
| G77I | -0.042 ± 0.11 |
| N45S | 0.061 ± 0.08 |
| N45Y | -0.595 ± 0.42 |
| N45G | -0.004 ± 0.045 |
| N45Q | 0.13 ± 0.075 |
| N45A | -0.076 ± 0.063 |
| N45E | -0.025 ± 0.072 |
| N45K | -0.265 ± 0.2 |
| C46K | -0.624 ± 0.2 |
| C46S | -0.604 ± 0.12 |
| C46E | -0.229 ± 0.074 |
| C46M | -0.654 ± 0.15 |
| C46R | -0.602 ± 0.072 |
| L61Q | -0.346 ± 0.07 |
| L61N | -0.702 ± 0.14 |
| L61I | -0.163 ± 0.071 |
| L61R | -0.84 ± 0.062 |
| L61K | -0.78 ± 0.1 |
| L61F | -0.062 ± 0.058 |
| L61C | -0.649 ± 0.089 |
| K62N | 0.146 ± 0.063 |
| K62A | 0.044 ± 0.036 |
| T39K | -0.083 ± 0.14 |

| Variant | abundance fitness |
| --- | --- |
| T39Q | 0.04 ± 0.085 |
| T39G | -0.099 ± 0.057 |
| T39R | -0.108 ± 0.068 |
| L65C | -0.265 ± 0.06 |
| L65F | -0.039 ± 0.078 |
| L65M | -0.069 ± 0.047 |
| L65S | -0.472 ± 0.059 |
| L65Y | -0.069 ± 0.069 |
| L65E | 0.06 ± 0.04 |
| V67P | -0.953 ± 0.14 |
| V67G | -0.26 ± 0.039 |
| V67D | -0.398 ± 0.11 |
| V67M | 0.099 ± 0.045 |
| V67I | -0.093 ± 0.07 |
| Q50G | -0.149 ± 0.035 |
| Q50K | 0.097 ± 0.062 |
| Q50F | -0.299 ± 0.17 |
| C7A | -0.692 ± 0.1 |
| C7R | -0.802 ± 0.093 |
| V5N | 0.152 ± 0.2 |
| V5H | 0.185 ± 0.19 |
| V5T | 0.104 ± 0.11 |
| V5A | 0.228 ± 0.084 |

From the Human Domainome abundance scans (Beltran et al. 2025)
